Measured values published in PMC10397247.
Each block holds one binder with its values, some of them ahead of it.

Legend:
P2bHq = target: T1, P2bHq; experiment: two-hybrid library CCNG1;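 also: natural log of median RNA to DNA barcode read ratio; higher means stronger binding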
T1 chain: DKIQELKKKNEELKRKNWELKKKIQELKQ

4H3298-bA = target: T2, 4H3298-bA; experiment: two-hybrid library CCNG1;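 also: natural log of median RNA to DNA barcode read ratio; higher means stronger binding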
T2 chain: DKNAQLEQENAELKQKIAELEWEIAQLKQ

4H3613-bA = target: T3, 4H3613-bA; experiment: two-hybrid library CCNG1;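 also: natural log of median RNA to DNA barcode read ratio; higher means stronger binding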
T3 chain: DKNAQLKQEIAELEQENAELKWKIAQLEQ

4H591-bA = target: T4, 4H591-bA; experiment: two-hybrid library CCNG1;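 also: natural log of median RNA to DNA barcode read ratio; higher means stronger binding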
T4 chain: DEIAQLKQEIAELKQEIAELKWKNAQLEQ

P10A-bS = target: T5, P10A-bS; experiment: two-hybrid library CCNG1;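 also: natural log of median RNA to DNA barcode read ratio; higher means stronger binding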
T5 chain: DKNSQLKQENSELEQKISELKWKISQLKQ

4H3628-bA = target: T6, 4H3628-bA; experiment: two-hybrid library CCNG1;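 also: natural log of median RNA to DNA barcode read ratio; higher means stronger binding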
T6 chain: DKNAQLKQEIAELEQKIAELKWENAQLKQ

4H348-bA = target: T7, 4H348-bA; experiment: two-hybrid library CCNG1
T7 chain: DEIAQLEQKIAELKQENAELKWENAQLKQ

4H626-bA = target: T8, 4H626-bA; experiment: two-hybrid library CCNG1
T8 chain: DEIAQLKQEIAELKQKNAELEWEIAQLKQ

4H3497-bA = target: T9, 4H3497-bA; experiment: two-hybrid library CCNG1
T9 chain: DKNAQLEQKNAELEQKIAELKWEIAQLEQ

4H3277-bA = target: T10, 4H3277-bA; experiment: two-hybrid library CCNG1
T10 chain: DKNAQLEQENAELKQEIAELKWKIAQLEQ

4H3175-bA = target: T11, 4H3175-bA; experiment: two-hybrid library CCNG1
T11 chain: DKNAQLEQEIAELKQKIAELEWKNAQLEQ

4H3462-bA = target: T12, 4H3462-bA; experiment: two-hybrid library CCNG1
T12 chain: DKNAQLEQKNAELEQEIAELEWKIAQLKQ

4H3162-bA = target: T13, 4H3162-bA; experiment: two-hybrid library CCNG1
T13 chain: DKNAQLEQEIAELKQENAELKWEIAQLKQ

4H3631-bA = target: T14, 4H3631-bA; experiment: two-hybrid library CCNG1
T14 chain: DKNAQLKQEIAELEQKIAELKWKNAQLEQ

4H3926-bA = target: T15, 4H3926-bA; experiment: two-hybrid library CCNG1
T15 chain: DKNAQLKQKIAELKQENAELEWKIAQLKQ

4H906-bA = target: T16, 4H906-bA; experiment: two-hybrid library CCNG1
T16 chain: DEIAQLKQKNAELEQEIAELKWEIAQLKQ

Core_NINI-es_KEKK = target: T17, Core_NINI-es_KEKK; experiment: two-hybrid library CCmax; settings: mean of both orientations
T17 chain: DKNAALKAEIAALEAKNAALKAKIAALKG

P3 = target: T18, P3; experiment: two-hybrid library CC1; settings: mean of both orientations
T18 chain: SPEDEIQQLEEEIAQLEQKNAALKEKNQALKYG

P8 = target: T19, P8; experiment: two-hybrid library CC1; settings: mean of both orientations
T19 chain: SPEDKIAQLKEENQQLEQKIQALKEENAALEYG

P6SC2 = target: T20, P6SC2; experiment: two-hybrid library CC1; settings: mean of both orientations
T20 chain: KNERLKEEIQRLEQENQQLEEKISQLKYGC

P5SC2 = target: T21, P5SC2; experiment: two-hybrid library CC1; settings: mean of both orientations
T21 chain: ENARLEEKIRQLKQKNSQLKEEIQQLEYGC

P5SC1 = target: T22, P5SC1; experiment: two-hybrid library CC1; settings: mean of both orientations
T22 chain: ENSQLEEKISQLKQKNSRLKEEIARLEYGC

P8mS = target: T23, P8mS; experiment: two-hybrid library CC1; settings: mean of both orientations
T23 chain: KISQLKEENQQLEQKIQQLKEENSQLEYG

P3mS = target: T24, P3mS; experiment: two-hybrid library CC1; settings: mean of both orientations
T24 chain: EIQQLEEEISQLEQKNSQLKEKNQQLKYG

P6mS = target: T25, P6mS; experiment: two-hybrid library CC1; settings: mean of both orientations
T25 chain: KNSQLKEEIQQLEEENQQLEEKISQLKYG

P5mS = target: T26, P5mS; experiment: two-hybrid library CC1; settings: mean of both orientations
T26 chain: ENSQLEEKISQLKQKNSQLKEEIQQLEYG

P7 = target: T27, P7; experiment: two-hybrid library CC1; settings: mean of both orientations
T27 chain: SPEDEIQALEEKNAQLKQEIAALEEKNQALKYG

P4mS = target: T28, P4mS; experiment: two-hybrid library CC1; settings: mean of both orientations
T28 chain: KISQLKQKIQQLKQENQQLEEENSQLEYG

P4 = target: T29, P4; experiment: two-hybrid library CC1; settings: mean of both orientations
T29 chain: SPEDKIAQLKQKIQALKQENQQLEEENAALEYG

P7mS = target: T30, P7mS; experiment: two-hybrid library CC1; settings: mean of both orientations
T30 chain: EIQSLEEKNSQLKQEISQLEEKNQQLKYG

P11 = target: T31, P11; experiment: two-hybrid library CC1; settings: mean of both orientations
T31 chain: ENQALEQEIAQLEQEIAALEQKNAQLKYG

P5 = target: T32, P5; experiment: two-hybrid library CC1; settings: mean of both orientations
T32 chain: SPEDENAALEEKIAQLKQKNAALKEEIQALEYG

P12 = target: T33, P12; experiment: two-hybrid library CC1; settings: mean of both orientations
T33 chain: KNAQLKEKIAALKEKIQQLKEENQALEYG

P6 = target: T34, P6; experiment: two-hybrid library CC1; settings: mean of both orientations
T34 chain: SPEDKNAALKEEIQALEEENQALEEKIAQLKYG

P9 = target: T35, P9; experiment: two-hybrid library CC1; settings: mean of both orientations
T35 chain: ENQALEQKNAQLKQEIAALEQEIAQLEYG

P10 = target: T36, P10; experiment: two-hybrid library CC1
T36 chain: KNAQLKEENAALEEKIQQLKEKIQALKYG

P6SC1 = target: T37, P6SC1; experiment: two-hybrid library CC1; settings: mean of both orientations
T37 chain: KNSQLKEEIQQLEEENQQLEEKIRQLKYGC

Core_INNN-es_KEKK = target: T38, Core_INNN-es_KEKK; experiment: two-hybrid library CCmax; settings: mean of both orientations
T38 chain: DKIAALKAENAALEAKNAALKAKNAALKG

interaction score (P2bHq): -0.679 | interaction score (4H3298-bA): -0.43 | interaction score (4H3613-bA): 0.452 | interaction score (4H591-bA): -1.2 | interaction score (P10A-bS): -0.255 | interaction score (4H3628-bA): -0.274 | interaction score (4H348-bA): -2.08 | interaction score (4H626-bA): -0.331 | interaction score (4H3497-bA): -0.885 | interaction score (4H3277-bA): -0.654 | interaction score (4H3175-bA): -0.314 | interaction score (4H3462-bA): -0.481 | interaction score (4H3162-bA): 1.11 | interaction score (4H3631-bA): -1.48 | interaction score (4H3926-bA): 1.8 | interaction score (4H906-bA): -1.01
B1: 4H3162-bA (peptide)
chain: DKNAQLEQEIAELKQENAELKWEIAQLKQ

interaction score (Core_NINI-es_KEKK): 2.15
B2: Core_NINI-es_EKEE (peptide)
chain: DENAALEAKIAALKAENAALEAEIAALEG

B3: P10 (peptide)
chain: KNAQLKEENAALEEKIQQLKEKIQALKYG
interaction score (P3): -1.63 | interaction score (P8): -2.83 | interaction score (P6SC2): -2.28 | interaction score (P5SC2): -2.77 | interaction score (P5SC1): -2.65 | interaction score (P8mS): -2.75 | interaction score (P3mS): -2.74 | interaction score (P6mS): -2.78 | interaction score (P5mS): -2.88 | interaction score (P7): -0.907 | interaction score (P4mS): -2.94 | interaction score (P4): -2.91 | interaction score (P7mS): -2.22 | interaction score (P11): -0.938 | interaction score (P5): -2.96 | interaction score (P12): -2.49 | interaction score (P6): -1.77 | interaction score (P9): 0.493 | interaction score (P10): -2.46 | interaction score (P6SC1): -2.61

interaction score (Core_INNN-es_KEKK): 1.91
B4: Core_INNN-es_EKEE (peptide)
chain: DEIAALEAKNAALKAENAALEAENAALEG
